Experimental data reported in the supplement of paper PMC12667976.
± gives the standard error.

B1: library; numbered along this chain (parent)
chain: MATDAALRRLLRLHRTEIAVAVDSAFPLLHALADHDVVPEDKFQETLHLKEKEGCPQAFHALLSWLLTQDSTAILDFWRVLFKDYNLERYGRLQPILDSFPKDVDLSQPRKGRKPPAVPKALVPPPRLPTKRKASEEARAAAPAALTPRGTASPGSQLKAKPPKKPESSAEQQRLPLGNGIQTMSASVQRAVAMSSGDVPGARGAVEGILIQQVFESGGSKKCIQVGGEFYTPSKFEDSGSGKNKARSSSGPKPLVRAKGAQGAAPGGGEARLGQQGSVPAPLALPSDPQLHQKNEDECAVCRDGGELICCDGCPRAFHLACLSPPLREIPSGTWRCSSCLQATVQEVQPRAEEPRPQEPPVETPLPPGLRSAGEEVRGPPGEPLAGMDTTLVYKHLPAPPSAAPLPGLDSSALHPLLCVGPEGQQNLAPGARCGVCGDGTDVLRCTHCAAAFHWRCHFPAGTSRPGTGLRCRSCSGDVTPAPVEGVLAPSPARLAPGPAKDDTASHEPALHRDDLESLLSEHTFDGILQWAIQSMARPAAPFPS

Variants of: B1
Experiment: AIRE transcriptional activation functional score (insulin promoter-GFP; nonsense median 0, synonymous median 1) (normalised score); higher = higher AIRE activity (more reporter activation)
Settings: with insulin promoter-GFP reporter in HEK293
Summary of the method: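 Codon-optimized AIRE NNN-codon libraries (three regions) were integrated by Bxb1 recombinase into Flp-In T-REx HEK293 landing-pad cells carrying an insulin core promoter-GFP reporter. Integrants (mCherry+, BFP−) sorted at day 7 were expanded 7 days; top 10% GFP and unselected integrant populations were tile-sequenced. Functional score is select versus non-select variant enrichment, wild-type subtracted. Variants needed 10 counts per million in non-select; scores were rescaled to nonsense median 0 and synonymous median 1, then averaged over biological replicates.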

AIRE transcriptional activation functional score of substitutions, site by site:
T441: P 1.13 ± 0.11; E 0.676 ± 0.27; R 0.696 ± 0.32; K 1.31 ± 0.051; A 1.03 ± 0.36; G 0.478 ± 0.33; D 0.0827 ± 0.34; V 0.851 ± 0.17; W 1.57 ± 0.035; Q 1.35 ± 0.054; Y 1.12 ± 0.098; S 1.02 ± 0.28; N 0.751 ± 0.16; I 1.08 ± 0.17; M 1.24 ± 0.095; L 1.13 ± 0.093; F 0.823 ± 0.34; H 1.1 ± 0.27; C 1.25 ± 0.14
C434: N 0.201 ± 0.12; L 0.207 ± 0.089; Y 0.0941 ± 0.11; V 0.211 ± 0.13; Q 0.225 ± 0.23; M 0.34 ± 0.084; T 0.243 ± 0.14; R 0.0925 ± 0.12; H 0.179 ± 0.038; D 0.5 ± 0.11; W -0.0557 ± 0.096; P 0.202 ± 0.26; G 0.163 ± 0.16; A 0.14 ± 0.15; F 0.223 ± 0.047; S 0.275 ± 0.14; K -0.158 ± 0.1; I 0.0869 ± 0.1; E 0.289 ± 0.11
T447: I 1.4 ± 0.15; W 1.32 ± 0.029; Q 0.797 ± 0.062; S 1.29 ± 0.18; E 0.425 ± 0.056; A 1.02 ± 0.4; L 1.2 ± 0.25; F 0.707 ± 0.19; V 1.18 ± 0.26; C 0.201 ± 0.3; G 1.03 ± 0.11; Y 0.458 ± 0.2; R 0.679 ± 0.35; M 1.49 ± 0.076; N 1.26 ± 0.23; D 0.924 ± 0.24
V436: C 1.33 ± 0.37; Y 1.28 ± 0.29; L 0.995 ± 0.26; D 0.874 ± 0.21; F 1.11 ± 0.13; M 0.555 ± 0.13; E 0.492 ± 0.29; Q 0.854 ± 0.3; T 0.824 ± 0.31; H 0.883 ± 0.41; S 0.217 ± 0.2; G 0.916 ± 0.37; R 0.525 ± 0.33; K 1.21 ± 0.1; N 1.19 ± 0.082; A 0.0856 ± 0.18; P 0.39 ± 0.15; I 1.35 ± 0.16
G440: A 0.417 ± 0.2; Q 1.15 ± 0.066; F 1.04 ± 0.35; P 1.25 ± 0.12; V 1.3 ± 0.26; L 0.997 ± 0.14; W 0.996 ± 0.03; S 1.16 ± 0.4; R 0.76 ± 0.21; E 0.195 ± 0.054; D 0.799 ± 0.89; K 0.598 ± 0.11
H448: L 1.07 ± 0.17; V 0.416 ± 0.19; P 0.0826 ± 0.074; F 0.906 ± 0.038; Q 1.05 ± 0.24; T 1.54 ± 0.085; A 0.696 ± 0.075; R 0.695 ± 0.34; Y 1.26 ± 0.16; D 0.718 ± 0.11; I 0.59 ± 0.049; W 0.403 ± 0.12; N 1.18 ± 0.2; S 0.0363 ± 0.091
C446: R 0.0344 ± 0.14; A 0.113 ± 0.089; E -1.3 ± 0.16; P 0.448 ± 0.13; Q -0.0282 ± 0.15; S -0.132 ± 0.15; M -0.496 ± 0.086; W -0.0678 ± 0.057; G 0.144 ± 0.14; V -0.492 ± 0.2; L 0.0671 ± 0.16; D -0.0826 ± 0.091; T -0.0482 ± 0.24; F 0.403 ± 0.22; Y -0.213 ± 0.15; K 0.294 ± 0.11; I 0.167 ± 0.25
F453: D 0.307 ± 0.1; C 0.283 ± 0.1; A 0.274 ± 0.29
R445: F 0.192 ± 0.16; E 0.42 ± 0.073; N 1.25 ± 0.17; Q 0.898 ± 0.28; S 0.952 ± 0.26; D 0.596 ± 0.048; K 1.17 ± 0.26; A 0.543 ± 0.18; L 0.998 ± 0.18; G 0.978 ± 0.24; V 0.784 ± 0.24; I 0.985 ± 0.14; P 0.738 ± 0.067; T 0.578 ± 0.34; W 0.804 ± 0.14; H 0.423 ± 0.093; C 0.188 ± 0.15
L444: N 0.882 ± 0.43; P 0.0281 ± 0.11; W 0.452 ± 0.12; A 0.718 ± 0.21; R 1.17 ± 0.17; K 0.847 ± 0.12; H 1.18 ± 0.073; F 0.489 ± 0.068; V 1.13 ± 0.18; S 1.09 ± 0.34; M -0.874 ± 0.42; C 1.96 ± 0.078; G 1.27 ± 0.24; Q 0.642 ± 0.092; Y 0.814 ± 0.26; D 1.55 ± 0.075; I 1.08 ± 0.18; T 0.477 ± 0.063; E 0.903 ± 0.13
A450: V 1.19 ± 0.3; T 0.632 ± 0.29; K -0.531 ± 0.21; L 1.22 ± 0.29; Y 0.311 ± 0.12; Q 1.13 ± 0.17; I 1.2 ± 0.2; R 1.4 ± 0.074; N 1.35 ± 0.14; H 1.43 ± 0.17; D 1.48 ± 0.055; P 0.565 ± 0.12; E 1.24 ± 0.089; C 0.795 ± 0.2; S 0.883 ± 0.2; G 0.382 ± 0.16; F 1.24 ± 0.54
G435: R 1.03 ± 0.13; L 0.516 ± 0.29; W 0.957 ± 0.092; P 1.14 ± 0.28; T 0.0827 ± 0.33; S 0.74 ± 0.35; K 1.2 ± 0.13; A 1.16 ± 0.3; N 0.945 ± 0.14; M 0.379 ± 0.042; C 1.18 ± 0.071; I 0.437 ± 0.3; D -0.0125 ± 0.24; Q 0.663 ± 0.11; Y 0.365 ± 0.14; V 0.849 ± 0.31; H 0.284 ± 0.12; F 0.364 ± 0.23; E 0.463 ± 0.17
V443: N 0.847 ± 0.14; L 0.596 ± 0.25; I 0.968 ± 0.28; E 1.12 ± 0.15; D 0.0282 ± 0.049; W 0.235 ± 0.036; T 0.921 ± 0.095; A 0.969 ± 0.35; F 0.581 ± 0.22; M 1.29 ± 0.095; P 1.15 ± 0.18; R 0.0498 ± 0.11; Q 0.368 ± 0.051; S 0.937 ± 0.33; G 1.13 ± 0.13; C 1.15 ± 0.15; Y 0.882 ± 0.17; H 1.16 ± 0.069; K 0.0676 ± 0.097
C449: P 0.244 ± 0.13; H 0.515 ± 0.12; T 0.263 ± 0.08; M -0.542 ± 0.087; V 0.0568 ± 0.16; N -0.014 ± 0.099; S -0.103 ± 0.24; G 0.257 ± 0.22; A -0.278 ± 0.3; Q 0.388 ± 0.15; F 0.317 ± 0.12; E 0.0473 ± 0.093; W 0.0652 ± 0.069; L 0.195 ± 0.21; D 0.418 ± 0.038; I -0.224 ± 0.16; Y 0.106 ± 0.096; R 0.252 ± 0.31
R433: V 0.599 ± 0.19; W 1.4 ± 0.071; Y 0.349 ± 0.15
A452: T 0.973 ± 0.13; L 0.666 ± 0.65; E 1.54 ± 0.056; C 1.13 ± 0.14; V 0.915 ± 0.25; P 0.719 ± 0.14; R 0.86 ± 0.35; M 0.473 ± 0.13; S 1.04 ± 0.19; G 0.775 ± 0.21; K 0.517 ± 0.12; F 0.934 ± 0.055; D 0.712 ± 0.14; H 0.816 ± 0.12
A451: S 0.496 ± 0.4; R 1.19 ± 0.44; D 0.631 ± 0.11; E 1.02 ± 0.12; P 0.142 ± 0.14; K 0.893 ± 0.1; N 0.582 ± 0.09; W 0.516 ± 0.2; T 0.528 ± 0.23; Q -0.927 ± 0.22; V 0.438 ± 0.078; L 0.76 ± 0.37; G 0.686 ± 0.21; I 0.663 ± 0.18; H 0.282 ± 0.15; F -0.0649 ± 0.075; Y 0.593 ± 0.28
D439: E 0.881 ± 0.2; A 1.1 ± 0.4; G 0.919 ± 0.15; P 0.0529 ± 0.088; S 0.93 ± 0.31; C 1.16 ± 0.086; Q 0.923 ± 0.33; I 0.279 ± 0.21; Y 1.35 ± 0.1; R 0.536 ± 0.33; K 0.809 ± 0.15; V 0.869 ± 0.19; T 1.03 ± 0.33; L 0.586 ± 0.25; N 1.07 ± 0.088; F -0.443 ± 0.34; W 1.2 ± 0.12; H 1.32 ± 0.28
D442: W -0.0188 ± 0.023; A 0.791 ± 0.17; V -0.000931 ± 0.14; N 0.93 ± 0.046; K 0.322 ± 0.1; S 0.83 ± 0.2; I -0.0637 ± 0.095; H 0.38 ± 0.23; C 0.845 ± 0.059; L 0.0551 ± 0.12; E 0.869 ± 0.1; Q 1.03 ± 0.076; P 0.0269 ± 0.18; T 0.24 ± 0.072; G 1.08 ± 0.099; R 0.257 ± 0.081; M 0.124 ± 0.025; Y 0.265 ± 0.11; F -0.04 ± 0.047
G438: K 1.12 ± 0.044; R 1.1 ± 0.31; L 0.0897 ± 0.28; M 1.31 ± 0.048; E 0.922 ± 0.077; F 0.712 ± 0.11; I 1.08 ± 0.32; P 0.303 ± 0.33; D 0.196 ± 0.064; V 1.1 ± 0.27; A 1.21 ± 0.32; T 0.646 ± 0.18; Q 1.23 ± 0.14; W 1.26 ± 0.047; N 0.938 ± 0.11; S 1.24 ± 0.22; C 1.25 ± 0.083
C437: V 0.168 ± 0.1; N 0.452 ± 0.035; E 0.473 ± 0.29; S 0.389 ± 0.13; M -0.171 ± 0.072; T 0.164 ± 0.18; K 0.35 ± 0.19; R 0.0167 ± 0.12; G 0.0855 ± 0.11; L 0.255 ± 0.17; I 0.106 ± 0.14; Q 0.296 ± 0.039; W 0.0698 ± 0.029; Y 0.215 ± 0.15; H 0.0985 ± 0.1; P 0.172 ± 0.16; F 0.199 ± 0.17; A 0.0947 ± 0.07; D 0.609 ± 0.19
